Laboratory results as given in patent publication US12202907B2, “Nucleic acids encoding and methods of producing proteins comprising antibody chains” (Innate Pharma, priority 2018, dated 2025).

Tests used:
[1] = system: cynomolgus CD39 expressing CHO cells (CHO-cyCD39); assay: Inhibition of the enzymatic activity of cellular CD39 in CHO-cyCD39; type: cell-based, cynomolgus (Macaca fascicularis); conditions: qualitative
Method: The inhibition of the CD39 enzymatic activity in CD39-expressing cells by antibodies was evaluated using Cell Titer GIo™ (Promega, reference G7571) that allows assessment of ATP hydrolysis through use of a reagent that generates a luminescent signal proportional to the amount of ATP present. The assay was thus designed to permit assessment of the inhibition of ATP hydrolyzed by CD39 in the cell culture supernatant. Briefly, 5×10^4 Ramos human lymphoma cells, 5×10^3 human CD39−, cynomolgus CD39—and mouse CD39− expressing CHO cells, were incubated 1 hour at 37° C. with anti-CD39 antibodies from 30 μg/ml to 5×10^−4 μg/ml. Cells were then incubated with 20 μM ATP for 1 additional hour at 37° C. Plates were centrifuged for 2 min at 400 g and 50 μl cell supernatant are transferred in a luminescence microplate (white wells). 50 μl CellTiter-Glo™ Reagent (CTG) was added to the supernatant and emitted light was quantified after a 5 min incubation in the dark using a Enspire™ luminometer. Anti-CD39 antibody efficacy was determined by comparing emitted light in presence of antibody with ATP alone (maximal light emission) and ATP together with cells (minimal light emission).

[2] = molecular target: T1, CD39 mutants transfected in Hek-293T cells (Homo sapiens, UniProt P49961, E143A/N99A/Q96A/R147E); assay: Epitope mapping: binding to CD39 mutants by flow cytometry; conditions: mutant 5: Q96A, N99A, E143A, R147E
T1 construct: expressed in transfected cells; host or cells: HEK293T
T1 sequence (P49961 1-510 Q96A/N99A/E143A/R147E): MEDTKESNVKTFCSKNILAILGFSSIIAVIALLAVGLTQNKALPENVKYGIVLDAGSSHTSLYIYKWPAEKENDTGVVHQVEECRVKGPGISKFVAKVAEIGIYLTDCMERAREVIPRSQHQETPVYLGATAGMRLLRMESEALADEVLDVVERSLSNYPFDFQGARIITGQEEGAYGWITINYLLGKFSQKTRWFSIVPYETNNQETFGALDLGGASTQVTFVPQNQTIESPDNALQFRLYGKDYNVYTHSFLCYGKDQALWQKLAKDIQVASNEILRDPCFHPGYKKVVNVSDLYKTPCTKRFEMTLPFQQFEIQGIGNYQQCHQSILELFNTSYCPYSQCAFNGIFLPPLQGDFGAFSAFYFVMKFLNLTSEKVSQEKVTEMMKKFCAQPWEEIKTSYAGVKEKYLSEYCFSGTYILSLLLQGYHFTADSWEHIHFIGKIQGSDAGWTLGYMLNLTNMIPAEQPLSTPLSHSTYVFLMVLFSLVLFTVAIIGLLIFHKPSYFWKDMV
Method: CD39 mutants were generated by PCR. The sequences amplified were run on agarose gel and purified using the Macherey Nagel PCR Clean-Up Gel Extraction kit (reference 740609). The purified PCR products generated for each mutant were then ligated into an expression vector, with the ClonTech InFusion system. The vectors containing the mutated sequences were prepared as Miniprep and sequenced. After sequencing, the vectors containing the mutated sequences were prepared as Midiprep using the Promega PureYield™ Plasmid Midiprep System. HEK293T cells were grown in DMEM medium (Invitrogen), transfected with vectors using Invitrogen's Lipofectamine 2000 and incubated at 37° C. in a CO2 incubator for 48 hours prior to testing for transgene expression. The targeted amino acid mutations in the table 1 below are shown using numbering of SEQ ID NO: 1.
In order to define the epitopes of anti-CD39 antibodies, we designed CD39 mutants defined by substitutions of amino acids exposed at the molecular surface over the surface of CD39.
Dose-ranges of I-394 (10-2.5-0.625-0.1563-0.0391-0.0098-0.0024-0.0006 μg/ml) are tested on the 20 generated mutants by flow cytometry. […] Mutant 5 contains amino acid substitutions at residues Q96, N99, E143 and R147. […]

[3] = molecular target: T2, Human CD39-L4 (NTPDase5, ENTPD5) (Homo sapiens, UniProt O75356); assay: ELISA titration on CD39-L4; type: binding
T2 sequence (O75356 25-428): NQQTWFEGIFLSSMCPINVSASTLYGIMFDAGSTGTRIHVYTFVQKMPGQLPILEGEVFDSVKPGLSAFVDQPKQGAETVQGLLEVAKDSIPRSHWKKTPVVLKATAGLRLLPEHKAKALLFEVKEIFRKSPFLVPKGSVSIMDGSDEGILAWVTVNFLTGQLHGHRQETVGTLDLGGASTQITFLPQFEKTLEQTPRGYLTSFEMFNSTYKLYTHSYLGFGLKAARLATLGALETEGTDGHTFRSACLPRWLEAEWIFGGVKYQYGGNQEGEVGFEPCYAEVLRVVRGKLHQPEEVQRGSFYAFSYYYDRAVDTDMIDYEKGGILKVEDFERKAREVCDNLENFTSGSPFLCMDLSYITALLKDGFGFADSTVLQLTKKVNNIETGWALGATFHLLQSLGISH
Method: Antibody I-394 was tested for binding to recombinant human CD39 isoforms (Rec-huCD39 isoforms) having amino acid sequences shown below were coated in 96-well plate in PBS 1X at 500 ng/ml or 1 μg/ml at 4° C. overnight. Wells were washed in TBS Tween® 20 (polysorbate 20), and further saturated 2H at RT in TBS Blocking buffer. Dose range concentration of primary antibody was incubated in TBS blocking buffer for 2 h at RT. Wells were washed in TBS Tween® 20 (polysorbate 20). […] Optical density was measured on Enspire™ at OD=450.

[4] = system: monocyte-derived DC (moDC); assay: Activation of dendritic cells in the presence of ATP; type: cell-based, human; conditions: ATP 0.125 mM, 0.25 mM or 0.5 mM; I-394 at 10 μg/ml
Method: Briefly, human monocytes were purified from human healthy blood and differentiated into MoDC in presence of GM-CSF and IL-4 during 6 days. […] In some cases, MoDC were preincubated for 1 hour in presence of CD39 inhibitor: […] (Tocris, 250 μM), CD73 inhibitor: APCP (Tocris 50 μM), anti-CD39 blocking antibody I-394 or BY40 (for BY40 see WO2009/095478), or anti-CD73 blocking antibodies. LPS (Invivogen, 10 ng/ml) was used as positive control. To assess resulting effect of ATP-mediated DC activation on CD4 T cells activation, ATP-activated DC were washed and then incubated with allogenic CD4 T cells (ratio 1 MoDC/4 T cells) for a mixed lymphocytes reaction (MLR) during 5 days. T cells activation and proliferation were analyzed through CD25 expression and Cell Trace Violet dilution by flow cytometry (FIG. 8).

I-394: anti-CD39 antibody, VH SEQ ID NO: 6, VL SEQ ID NO: 7, human IgG1 Fc with L234A/L235E/G237A/A330S/P331S
blocking CD39 enzymatic activity in CHO-cyCD39 [1]: blocks CD39 enzymatic activity | binding to cells expressing mutant 5 of CD39 [2]: strongly reduced binding to mutant 5 (but with some residual binding to mutant 5) | binding to CD39-L4 in ELISA [3]: not to any of the isoforms CD39-L1, -L2, -L3 or -L4 | ATP-induced moDC activation (HLA-DR or CD83 expression) [4]: permitted moDC activation
